{"source": "patent US20190345209", "origin": "cited, not measured here", "tested_on": "BCR-ABL1 zinc finger protein (three-finger ZFP) (synthetic construct)", "conditions": "CITED (ref 50); p122 prints 78 uM, evidently a typo"}
{"sequence": "GCAGAAGCC (double strand) [BCR-ABL1 9 bp binding site (in Go92, Go66, Go85 promoters)]", "values": [{"measurement": "Kd", "result": 0.078, "unit": "nM"}]}
